# Source: patent US20180161335
# Assays:
# [1] = biological target: ARF3, purified from E. coli, preloaded with BODIPY FL GDP (UniProt P61204)
# [2] = tested on: the other GTPases tested
# Sequence of ARF3, purified from E. coli, preloaded with BODIPY FL GDP (P61204 whole entry): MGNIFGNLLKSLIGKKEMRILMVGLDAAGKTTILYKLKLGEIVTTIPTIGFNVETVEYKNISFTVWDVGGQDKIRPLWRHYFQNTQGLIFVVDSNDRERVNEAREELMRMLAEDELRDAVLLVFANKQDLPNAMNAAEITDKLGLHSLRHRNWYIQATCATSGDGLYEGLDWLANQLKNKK
substance,measurement,setting,value
"C9ORF72 isoform A, 2x HA-tagged, in HEK cell lysate",guanine exchange activity (BODIPY-GDP fluorescence),[1],C9ORF72 isoforms A and B stimulated guanine exchange on ARF3
same,guanine exchange activity (BODIPY-GDP fluorescence),[2],Significant activity was not observed using both C9ORF72 isoforms on the other GTPases tested
